Measurements taken from paper PMC12436594.

Target: PvLDH (lactate dehydrogenase) (Plasmodium vivax) (UniProt Q4PRK9)
Assay: flow cytometry (Ni-NTA beads)
[1] = dUCOTc replaces every T after the 20-nt forward primer

Sequence | Kd [1] [nM] | Kd (dUCOTc (COT-carboxylate-modified dU) replaces every T after the 20-nt forward primer) [nM]
CACTCACGTCAGTGACATGCCAAGCGAAGTTGTGCGCCCGCGTCGTGGTCGTCAGAAATTTCGCACCAC [N5 COTc aptamer] | 14.4 | –
CACTCACGTCAGTGACATGCAGGTCCTCTCGCCCCCAGTGACTTGCGTGGTCAGAAATTTCGCACCAC [N15 COTc aptamer] | 5.6 | –
CACTCACGTCAGTGACATGCGCATTACGCAGCGCTGCGCAGCGAGTACCGGTCAGAAATTTCGCACCAC [N0 COTc aptamer] | – | 3.7
